Here are results for one molecule from patent US7867500B2, “Cofactor that modulates steroid receptor activities” (The United States of America as represented by the …, priority 2004, dated 2011).

The assay concerns the target T1, CBP (Homo sapiens, UniProt Q92793).
T1 construct: expressed in transfected cells; host or cells: CV-1 (the same two-hybrid assay)
Put plainly: Mammalian two-hybrid assay with CBP. Conditions: data not shown. Format: cell-based. How it is done:
These assays were conducted as described (He et al., 2002). In particular, the recommended procedure for the Mammalian Matchmaker two-hybrid assay kit (Clontech) was modified slightly by changing from a chloramphenicol acetyltransferase reporter to a Luciferase Reporter pFRLuc (Stratagene), which is under the control of five repeats of the upstream activating sequence for the binding of GAL4.

T1 sequence (Q92793 whole entry): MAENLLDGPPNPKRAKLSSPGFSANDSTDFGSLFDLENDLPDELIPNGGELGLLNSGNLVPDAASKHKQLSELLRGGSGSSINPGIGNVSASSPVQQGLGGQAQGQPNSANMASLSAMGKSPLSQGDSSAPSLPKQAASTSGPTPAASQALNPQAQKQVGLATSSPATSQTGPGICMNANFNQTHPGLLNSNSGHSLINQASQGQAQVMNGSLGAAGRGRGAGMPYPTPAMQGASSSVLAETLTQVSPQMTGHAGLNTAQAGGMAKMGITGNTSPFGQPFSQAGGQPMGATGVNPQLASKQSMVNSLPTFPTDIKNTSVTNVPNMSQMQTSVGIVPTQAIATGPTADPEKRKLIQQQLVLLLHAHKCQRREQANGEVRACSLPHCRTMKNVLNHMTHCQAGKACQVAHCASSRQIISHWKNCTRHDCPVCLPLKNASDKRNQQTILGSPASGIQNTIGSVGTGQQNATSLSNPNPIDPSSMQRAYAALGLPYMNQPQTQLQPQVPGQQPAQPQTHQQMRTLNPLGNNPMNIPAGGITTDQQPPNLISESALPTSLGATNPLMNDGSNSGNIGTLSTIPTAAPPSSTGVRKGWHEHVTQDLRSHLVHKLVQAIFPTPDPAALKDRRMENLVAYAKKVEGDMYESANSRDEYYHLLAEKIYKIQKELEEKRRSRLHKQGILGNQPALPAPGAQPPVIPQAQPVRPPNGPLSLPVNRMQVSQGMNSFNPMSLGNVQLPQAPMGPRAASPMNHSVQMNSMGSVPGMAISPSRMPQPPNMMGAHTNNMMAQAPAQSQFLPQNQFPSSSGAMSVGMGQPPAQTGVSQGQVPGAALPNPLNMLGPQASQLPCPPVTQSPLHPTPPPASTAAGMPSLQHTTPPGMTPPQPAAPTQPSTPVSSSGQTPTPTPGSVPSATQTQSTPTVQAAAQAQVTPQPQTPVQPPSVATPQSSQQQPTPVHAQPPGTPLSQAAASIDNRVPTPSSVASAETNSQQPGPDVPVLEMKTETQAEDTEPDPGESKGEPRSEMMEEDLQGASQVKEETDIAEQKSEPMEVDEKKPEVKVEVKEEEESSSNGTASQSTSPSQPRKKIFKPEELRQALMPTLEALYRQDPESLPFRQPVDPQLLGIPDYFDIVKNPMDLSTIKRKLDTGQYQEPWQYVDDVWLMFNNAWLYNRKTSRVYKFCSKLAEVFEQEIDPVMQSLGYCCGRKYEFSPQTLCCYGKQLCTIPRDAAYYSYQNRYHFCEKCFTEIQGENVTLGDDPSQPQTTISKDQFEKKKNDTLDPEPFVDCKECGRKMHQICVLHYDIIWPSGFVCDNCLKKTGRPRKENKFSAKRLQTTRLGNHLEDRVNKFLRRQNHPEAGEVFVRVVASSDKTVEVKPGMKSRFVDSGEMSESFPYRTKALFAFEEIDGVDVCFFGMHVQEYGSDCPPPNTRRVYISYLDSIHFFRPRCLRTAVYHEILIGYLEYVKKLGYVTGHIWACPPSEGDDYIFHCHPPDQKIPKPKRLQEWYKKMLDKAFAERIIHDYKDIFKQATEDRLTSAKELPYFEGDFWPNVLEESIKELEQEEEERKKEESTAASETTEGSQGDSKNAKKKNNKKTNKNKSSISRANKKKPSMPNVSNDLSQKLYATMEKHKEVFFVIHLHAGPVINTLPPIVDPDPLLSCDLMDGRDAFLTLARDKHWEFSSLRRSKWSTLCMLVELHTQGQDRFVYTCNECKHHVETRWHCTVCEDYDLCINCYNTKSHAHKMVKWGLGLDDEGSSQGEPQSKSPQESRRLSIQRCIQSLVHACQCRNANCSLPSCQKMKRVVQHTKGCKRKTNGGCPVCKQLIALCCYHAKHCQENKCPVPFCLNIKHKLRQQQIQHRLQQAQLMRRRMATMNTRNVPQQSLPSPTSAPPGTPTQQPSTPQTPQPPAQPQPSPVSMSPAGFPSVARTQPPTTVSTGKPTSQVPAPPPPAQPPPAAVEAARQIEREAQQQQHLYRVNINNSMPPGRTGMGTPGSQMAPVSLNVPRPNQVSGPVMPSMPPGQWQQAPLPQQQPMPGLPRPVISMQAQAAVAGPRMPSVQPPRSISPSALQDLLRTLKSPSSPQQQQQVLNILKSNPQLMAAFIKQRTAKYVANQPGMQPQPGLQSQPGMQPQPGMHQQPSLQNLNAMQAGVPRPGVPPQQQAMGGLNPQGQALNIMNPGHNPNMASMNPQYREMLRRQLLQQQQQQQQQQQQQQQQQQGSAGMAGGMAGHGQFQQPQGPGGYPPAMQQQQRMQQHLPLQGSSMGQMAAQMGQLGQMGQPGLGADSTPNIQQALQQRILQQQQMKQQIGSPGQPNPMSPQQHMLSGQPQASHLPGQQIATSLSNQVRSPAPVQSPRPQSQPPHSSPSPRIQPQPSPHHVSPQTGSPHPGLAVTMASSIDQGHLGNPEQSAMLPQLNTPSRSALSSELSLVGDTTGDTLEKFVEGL

B1: 6-6CL1: STAMP fragment amino acids 623-834, coactivator interaction domain (CID) (protein)
chain: ENTPKENSMKVREWNNKGGHCCKLETQELEPKFNLMQILQDNGNLSKMQARIAFSAYLQHVQIRLMKDSGGQTFSASWAAKEDEQMELVVRFLKRASNNLQHSLRMVLPSRRLALLERRRILAHQLGDFIIVYNKETEQMAEKKSKKKVEEEEEDGVNMENFQEFIRQASEAELEEVLTFYTQKNKSASVFLGTHSKISKNNNNYSDSGAKG
On to B1, for which the “association with CBP” value is “negligible association”.
